Experimental data: article PMC10689493 (Nature Communications, 2023)

Biological target: T1, biotinylated SARS-CoV-2 Spike protein (WA-2, 2 P) (SARS-CoV-2 WA-2 (entry: reference …, UniProt P0DTC2, stabilised, biotinylated))
T1 construct: source: bought: R&D systems
Experiment: SPR
Settings: both partners purified

B1: S2P6 FAB fragment (Fab, V domains shown)
VH: EVQLVQSGAEVKKPGASVKVSCKASGYTFTSQYMHWVRQAPGQGLEWIGIINPSGVHTSYAQKFQGRVTLTRDTSTSTLYMELSSLRSEDTAVYYCARGSPKGAFDYWGQGTLVTVSS
VL: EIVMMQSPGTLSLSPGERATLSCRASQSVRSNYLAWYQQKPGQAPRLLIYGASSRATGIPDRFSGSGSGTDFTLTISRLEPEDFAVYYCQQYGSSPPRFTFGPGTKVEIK
With B1 the Kd was 0.4 nM.

B2: DH1057.1 FAB fragment (Fab, V domains shown)
VH: EVQLVESGTEVKKPGASVKVSCKTSGYIFTNYYIHWVRQAPGQGLEWMGIFNPNGGGTSYAQKFQGRITLTGNTSANTGYMVLRSLTSEDTAVYYCARDPRTSGDNDGFDMWGQGTKVTVSS
VL: VLTQSPATLSLSPGERATLSCRASQSLSSYNYLAWYQQKPGQAPRLLIYAASKRATGIPARFSGSGSGTDFTLTISSLEPEDFAVYFCQQRSNRPPAWTFGQGTKVEIK
B2 was tested, and the Kd was 11.5 nM.
